For 116 sequences, protein stability index results are on record in the supplement of paper PMC10724198.

± gives the standard deviation of the averaged measurements.
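Note: PSI is a weighted mean of sequencing reads over stability bins, variants kept only with over 10 reads, mCherry proximal and sfGFP distal, peptide attached via GGGS linker.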

The data set concerns Saccharomyces cerevisiae. The experiment in a line: protein stability index of tFT-peptide fusion (C-terminal peptide) (PSI (0-1 scale)); higher = more stable (slower turnover). The conditions noted are these: genetic background: wild type; temperature: 30 C.
Sequence HSQPPRRPSTNP showed a protein stability index of 0.792 ± 0.033. As to HSSLPQPRELRT, the protein stability index amounted to 0.674 ± 0.021. HSSPHFTTTKTP showed a protein stability index of 0.7081 ± 0.0016. HSVPSCPKFSII had a protein stability index of 0.66732 ± 0.00044. For HTDSKVVILFVP, the protein stability index is 0.592 ± 0.014. The result for HTGLRASSPNST reads 0.753 ± 0.052. As for HTPAPLPPPLHP, the figure is 0.691 ± 0.011; as for HTPPAPLPSSPH, 0.749 ± 0.0079. HTPPMVGMLCLG: the protein stability index amounted to 0.6 ± 0.032. In turn, HTSFQTNASPKD returned a protein stability index of 0.727 ± 0.031. HVDSLPRPLLPS came in with a protein stability index of 0.716 ± 0.056. For HVLCRAFLFLLP, the protein stability index amounted to 0.642 ± 0.016. Consider HVLHKPYRPGRP, for which the protein stability index stood at 0.601 ± 0.0069. Take HVPHFCLSPTII: the protein stability index was found to be 0.758 ± 0.14. HVPRFLPFLSSL returned a protein stability index of 0.739 ± 0.033.

Consider HVVLPPRYCISR, for which the protein stability index stood at 0.696 ± 0.015. Regarding HWRRGGRSGGDR, the protein stability index is 0.71 ± 0.033.

For the sequence HWTLRRGTGIEL, the protein stability index is 0.6693 ± 0.0061. HYEIFSCDPGCD registered a protein stability index of 0.746 ± 0.024. Sequence HYLHRDSLLRWL showed a protein stability index of 0.6182 ± 0.0033. In turn, HYRLPLPPASPA came in with a protein stability index of 0.701 ± 0.052. HYSMAPIPHDNR returned a protein stability index of 0.711 ± 0.074.

In turn, IAASCGPRYKDS came in with a protein stability index of 0.632 ± 0.077. As for IADGSEIVRSLI, the figure is 0.71 ± 0.038; as for IAEWVRLIVGEG, 0.671 ± 0.015. IAVSWIRGGRIM showed a protein stability index of 0.849 ± 0.13. For the sequence ICCASALPFDIS, the protein stability index was 0.784 ± 0.19. In the case of IDVRRAIIPGLG, the protein stability index is 0.595 ± 0.011.

Regarding IESLDRRGAEQI, the protein stability index stood at 0.747 ± 0.045.

Consider IFIPRFDLPSFP, for which the protein stability index was determined as 0.788 ± 0.16. Take IFIVINGHFAGS: the protein stability index came to 0.66 ± 0.06. The result for IFKSLEKKTKRV reads 0.766 ± 0.0086; that for IFMHPRATLPAR, 0.73 ± 0.076; that for IFRSLDFVFYFT, 0.646 ± 0.097. In turn, IFSSFCPASFFL gave a protein stability index of 0.757 ± 0.031. As for IGFNVEIRKGMG, the figure is 0.605 ± 0.082. For IGGRRGVTGIFV, the protein stability index turned out to be 0.699 ± 0.064. In turn, IGIGVAGERLGV came in with a protein stability index of 0.612 ± 0.059.

IGIIFTKCGGRT returned a protein stability index of 0.688 ± 0.037. IGKWIKKKKQKG displayed a protein stability index of 0.631 ± 0.023.

IGLFWSGFFYGV registered a protein stability index of 0.743 ± 0.038. In the case of IGLRCPPPKPYA, the protein stability index came to 0.696 ± 0.035. As for IGLRVLSNSYEV, the protein stability index amounted to 0.694 ± 0.031. As to IGRRGINGLWGG, the protein stability index was determined as 0.627 ± 0.042.

IGRVFGMENIKM showed a protein stability index of 0.669 ± 0.014. IGTGLVLFSPCY came in with a protein stability index of 0.69 ± 0.022. IGTKKVINDKLL returned a protein stability index of 0.675 ± 0.028. Consider IGVRSPSTHIVN, for which the protein stability index amounted to 0.72 ± 0.018. The sequence IGWCRLRDRLVS yielded a protein stability index of 0.556 ± 0.048.

The sequence IHRLPPSLFPLL gave a protein stability index of 0.776 ± 0.12.

Sequence IIKDITNRGYAW registered a protein stability index of 0.724 ± 0.073. Sequence IIKKKKNKARDI returned a protein stability index of 0.734 ± 0.067. The result for IILHLTRPGLAL reads 0.673 ± 0.013; that for IILVVLSRLYVI, 0.5644 ± 0.003; that for IIPQSCTSGGHT, 0.711 ± 0.061. As for IIRKYKARKKNK, the figure is 0.688 ± 0.041. On to IKIKKKKKRNKR, for which the protein stability index worked out at 0.685 ± 0.057. Sequence IKKKNQKHKKKN had a protein stability index of 0.7114 ± 0.0029. For IKKKTNYMNEKI, the protein stability index is 0.661 ± 0.0096. The result for IKKQTKTKKKEF reads 0.65 ± 0.058. The result for IKKRTSNRENKD reads 0.7 ± 0.025; that for IKKSRSLRIGMN, 0.584 ± 0.04; that for IKNENKKKKNKK, 0.699 ± 0.024. As for IKRKKKKKKKRD, the figure is 0.6558 ± 0.0015; as for IKTKKKKKKKRD, 0.686 ± 0.0099; as for IKTVSDFLIVKL, 0.6998 ± 0.0055. The sequence ILCFSLESPRYH yielded a protein stability index of 0.6991 ± 0.0022.

In turn, ILCLPFSVSSPS showed a protein stability index of 0.61579 ± 0.00015. Sequence ILCPSPAPTSFP returned a protein stability index of 0.6682 ± 0.0061.

Take ILLSVAMNLRKH: the protein stability index came out at 0.571 ± 0.037. As for ILNNSDRAYTIQ, the figure is 0.731 ± 0.04; as for ILPFYAEGQLKF, 0.649 ± 0.05. As for ILSASARPPRPA, the protein stability index worked out at 0.701 ± 0.011. As for ILSGIGNGSGSE, the figure is 0.72 ± 0.06; as for ILSPDRTHANET, 0.665 ± 0.083; as for ILSPLRHPEPTR, 0.70614 ± 9.6e-05. The sequence ILVAPAYYCWKV had a protein stability index of 0.642 ± 0.045. As for ILWVSPFFFSLD, the protein stability index is 0.699 ± 0.064. As for INLVKRQTVKPP, the figure is 0.611 ± 0.076; as for INYSNQNKINRW, 0.6294 ± 0.00076. As for IPGHRHTKRIFG, the protein stability index amounted to 0.641 ± 0.012. Take IPPPLPPRAPLP: the protein stability index stood at 0.672 ± 0.057. As for IPRERPAEHYGG, the figure is 0.6473 ± 0.0018. In turn, IPSPYPPPAPLH gave a protein stability index of 0.666 ± 0.011.

In turn, IPSRALSCLLPC had a protein stability index of 0.66 ± 0.053.

As for IPSRGVQIPSWV, the protein stability index turned out to be 0.63 ± 0.03.

Sequence IQAGHLYPESLV displayed a protein stability index of 0.708 ± 0.056. The result for IQANLPLLTNQE reads 0.6631 ± 0.0017; that for IQDVGLKRLARV, 0.675 ± 0.061. As for IQLQSNGLYSKK, the protein stability index turned out to be 0.665 ± 0.065. IQLRPFLSSPCR registered a protein stability index of 0.609 ± 0.035. The result for IQPDVILLTRFV reads 0.6592 ± 0.0033; that for IQRIPSGSGRVR, 0.736 ± 0.058; that for IREQGQSLCKST, 0.603 ± 0.029.

IRETTYSRPFQL showed a protein stability index of 0.695 ± 0.05. Turning to IRGGSRLPFYSS, the protein stability index stood at 0.731 ± 0.013.

For IRKDRGYETGKR, the protein stability index amounted to 0.6746 ± 0.0043.

Consider IRLQKEGIKKIL, for which the protein stability index amounted to 0.699 ± 0.019. As to IRPDLWYGLAVV, the protein stability index amounted to 0.59 ± 0.023.

IRPSGVVPPRAG: the protein stability index came out at 0.65 ± 0.048. The sequence IRPSNLRPPSYL came in with a protein stability index of 0.682 ± 0.022.

IRQITVTICRGR gave a protein stability index of 0.639 ± 0.067. Turning to IRREETKRKRNL, the protein stability index is 0.755 ± 0.044. The result for IRRNRGLKWNVN reads 0.613 ± 0.068; that for IRRRQKYPKKKS, 0.6803 ± 0.0059. Consider IRRTNRKETRKE, for which the protein stability index turned out to be 0.686 ± 0.042. In the case of IRSLRWVRRESV, the protein stability index came out at 0.706 ± 0.1.

Regarding ISDRKARSDKNK, the protein stability index amounted to 0.656 ± 0.071. In turn, ISILPDSIGQGA came in with a protein stability index of 0.687 ± 0.055.

Consider ISLCSVARLGFA, for which the protein stability index stood at 0.704 ± 0.021. ISSRSMGGCWHA had a protein stability index of 0.673 ± 0.023. Consider ISVAHIPPVYHS, for which the protein stability index was 0.643 ± 0.038. ISVEELKSIKKK showed a protein stability index of 0.6296 ± 0.0019.

ISVPNPTRPDHP came in with a protein stability index of 0.665 ± 0.063. As for ISVSLWFRGRYY, the figure is 0.599 ± 0.034; as for ISVSTDSPVRTW, 0.639 ± 0.023.
